The nature of the data set: label from the status in PepcDB records.

On to “MDPNQPVKFTEFMPDSGGIRTKFIVKGSNFGEDKSQVKVYFKDEVGNEREALVLGVKPDVIYAQVPKQAGGESHVRVEIAGKEAELSNAEKTFKYIVTSSVSTVVGKAKEGGNKDGTLGETTFNTPRYVAVDNDDNVFIFDSDGRTRLSSIEQNKTITLLDGMVIDQPLFIDKEKKQLFGPCDNANFGCFLFDANVSWVADKMGQLLANGGWMHSVVLDPVDSTFVIYRQNTGQLWTQPFDKNRRTLNPNKAKRIGTLYNTGSNGLCAYNPVDKYVYCVLHSKSAVYRFKLTRDADGWPALDGDIDEYIPGAGAGFRDGDVQEAQFKEPRGIAIDKEGNLYIADVGNNRIRKVDTKLNVVTTIAGSGAAGYKDGDPLEAQFNQPWGVYLDKNEFLYIADQNNHCIRKLAIELEHHHHHH”, for which the protein production result is “failed”.

“MDPNVITVTSYANIAIIKYWGKENQAKMIPSTSSISLTLENMFTTTSVSFLPDTATSDQFYINGILQNDEEHTKISAIIDQFRQPGQAFVKMETQNNMPTAAGLSSSSSGLSALVKACDQLFDTQLDQKALAQKAKFASGSSSRSFFGPVAAWDKDSGAIYKVETDLKMAMIMLVLNAAKKPISSREGMKLCRDTSTTFDQWVEQSAIDYQHMLTYLKTNNFEKVGQLTEANALAMHATTKTANPPFSYLTKESYQAMEAVKELRQEGFACYFTMDAGPNVKVLCLEKDLAQLAERLGKNYRIIVSKTKDLPDV”: the protein production result is reported as “not failed”. As to “MDPRQFEHTVVADNDIHSIVMSYLLHNCFNETADSLASSTGVKQPAIDRDNMERRKQIIHFILERKALKAFELTEQLAQDLLEKNKDLQFDLLCLHFVELICAGNCTEALKFGKTRLAPFGKVKKYVEKLEDVMALLAYEDPEKSPMFHLLSSEYRQQVADNLNRTILEHTNHPSYTPMERIIQQVTVVRQYLTEENGKDAFPPFSLKDSLKG”, the protein production result is listed as “failed”. In the case of “MDPSRLLRTERERKAVMPPFSPGPLPIDPVLPALLEALASHGRAVLIAPPGAGKTTRVPPALLGALWLGGQKVVMLEPRRLATRAAARRMAFEAGEAVGQRFGFRVRGESRSGPLTRVEVMTEGILTRRIQDDPELAGVGCVILDEFHERGLQGDLAFALLREIQGALRPDLRLLVMSATLDGAAIAALMDDAPVIESHGRAFPVTITHGERPAARDLGPAMARTILRALEDEPGSVLAFLPGEREIAAVAGALARALPADTVLRPLYGALPPAEQDAAISPCPPGQRKVVLATDIAETSLTIEGVRIVVDSGLRRSPRFDPQTGLSRLDTVRISQAGAEQRRGRAGRLEPGVCLRLWPEAEHRALPAQETPEILAADLAPLALELARWGARDAAALCWPTPPPPGPLAQARDLLTSLGALEPAGGLSAHGAAMAALPLHPRLAHMVLAAKADGADDGALACLLAALLAERDILRPGPGAARDRDLTTRLEILIGQGRRAPAGQILRQPTLGAVRDEAARLRQLAGIAASASPEPARCGRVLARAYPDRIAQARPGQPGRFLLSSGRGALIDVGDPLAAAAFLAVAEVDGAGSEARVFLAAPLDRADLEELFDEALRPCETVTWDPRAEAVVARVERRLGALVFESRDLPDRADPARTTPAVCAGIRRLGLGCLPWTRETDRLRARVAFLHRVHSADDWPDLSDDALLASLADWLGPWLDGITRRSAFARIDLMAALKALIGWRRLADLDRLAPAQMDVPSGVKVALDYEVPDGPVLAARVQQLFGLTRTPAVLDGGHPVLVHLLSPAGRPLQVTRDLAGFWKGSYAEVRKDMRGRYPKHPWPEDPTGAEATNRVKPRGQ” it was “failed”. With “MDPWDTYNIPLDHQHRLRNRRDHRHPSFSSTLLDQIYRSIDDSSTNSSSMRKTKHQNREDTRVSANRRDDFNRSKNLKTIEPVFFKHSSSSSSDSSGFSSSESDYFYRRSKSSPAISHPKPIRTTVERFERSPQNHRPNSSNKQEHGSFLKTKSKALKIYSDLKKVKQPISPGGRLATFLNSIFTGAGNTKKLNKINTTVTSTTAAAAAASSTTTCSSASSFSRSCLSKTPSSSEKSKRSVRFCPVNVIFDEDSSKYNNKNNKVYGNNEREYESIRHTLENRVMEENRRVIEAAKELLRSYQKKNKEVIEVSVEDDEEDDDDDALSCTSSDLFELDNLSAIGIDRYREELPVYETTRLNTNRIISR”, the protein production entry was “failed”.

Take “MDQESNATSQDILKQHAAHYESDMGGLPEALVQLAEYAPETFDAYSRMRTTMLKSEADGAKLPLKYKHLILVVLDAIRDEPIGIVNHTRAAMNAGLSVDELIEGILLGIIVYGMPAWGKTGRKAVTFAVEFEKELAGKRT”: the protein production result was “not failed”. As for “MDQKELQVRKEIQELSFLIFTEPNNYKHYYERGILYGGEHIKSTECRESDYHGDYSQAIEDFDKVIELQPNFANAYYHKACIYFDLGIDDDEAESLLEKALALEPNNSAYTIKYAEVITYHGENGDIAAELLEKVLVQDYSADNCILSAGYLLQYASYDFLIGNDVQALQTYQKAMKRLQHAVEKDHECLEYATNMWSDFAEGCGYDHESIKNGSSLLLPQISVWM”, the protein production result is listed as “failed”.

Take “MDQKPQPAKTHATEVTVLEGKTMGTFWRASIPGIDAKRSAELKEKIQTQLDADDQLLSTYKKDSALMRFNDSQSLSPWPVSEAMADIVTTSLRIGAKTDGAMDITVGPLVNLWGFGPEQQPVQIPSQEQIDAMKAKTGLQHLTVINQSHQQYLQKDLPDLYVDLSTVGEGYAADHLARLMEQEGISRYLVSVGGALNSRGMNGEGLPWRVAIQKPTDKENAVQAVVDINGHGISTSGSYRNYYELDGKRLSHVIDPQTGRPIEHNLVSVTVIAPTALEADAWDTGLMVLGPEKAKEVVRREGLAVYMITKEGDSFKTWMSPQFKSFLVSEKNLEHHHHHH”: the protein production entry is given as “not failed”. To “MDQMEKITTGVSYTTSAVGTGYWFLQLLDRVSPSQWAAIGVLGSLLFGLLTYLTEVYWQ” belongs “failed”. As to “MDREALDRKRTWVTQGPIVKVILALATPIVAARLLAATQESVDAIFLGRVSTEDLAAPAAASPLLWLFAGLGIGINTTLSALVSQAIGARDYASAQRYASKLLGATLMLGAASALAIILTAETVFILQGFQGRSLEVALAYTLVEAVGMPFMLALFYFNAVMAASGDTRTPFKVSALSSILNVILDPILIFGLILLPPLGAVGAAVATVLARAAAVSIAFYLLLRGAPGFRVKPSMPDRQLIGHILRIGGPVSLQRLVVSMGFLVMMGIVARLGAPVVAAYNVSLVIIHIVQSATFGFNIATATVVGQNLGASNISRAVRAAYTGVALVFGLLSIGAVAIVGGRSMLVSLFTSIEEVQFYAERMISIVALGMPFLGAFFTAMGVARGSGRTAFISALGIARLWLLRIPAAYTLVYIYSLGDMGVWLAMTLSNIIAGTLAIAWVAGRTWAKPIVKRVPPEPLGEKPPAIPEPAINR”, the protein production result is reported as “failed”. To “MDRFENMNAFVRVVETGSISAAADRMDIAKSVVSRRLKELEEHLGVELFHRTTRQMNLTDSGRAFYQQSVRILADVLEAEHATSQFHGRLKGHLKVAVPLSFGLMHLGAAISTFLQTHPDIEFDLDFNDRQVDLLAEGFDLAIRIANLPDSSLIARRLAPIQAVMCASPAYLERMGTPQAPEELIRHRCLVYNLVSHSDNWNVYGTTGELIKTRIIPYLKASNGEFLRDAAVDGLGIVLLPTFIVYREIQRGALIPILTGYHYAQLAAYAIYPQTRHLSQRVRAFVDFLSQRFEGMPYWDACLNQ” belongs “failed”; to “MDRGEQGLLRTDPVPEEGEDVAATISATETLSEEEQEELRRELAKVEEEIQTLSQVLAAKEKHLAEIKRKLGINSLQELKQNIAKGWQDVTATSAYKKTSETLSQAGQKASAAFSSVGSVITKKLEDVKNSPTFKSFEEKVENLKSKVGGTKPAGGDFGEVLNSAANASATTTEPLPEKTQESL”, “failed”; to “MDRIIEKLDHGWWVVSHEQKLWLPKGELPYGERANFDLVGQRALQIGEWQGEPVWLVQQQRRHDMGSVRQVIDLDVGLFQLAGRGVQLAEFYRSHKYCGYCGHEMYPSKTEWAMLCSHCRERYYPQIAPCIIVAIRRDDSILLAQHTRHRNGVHTVLAGFVEVGETLEQAVAREVMEESGIKVKNLRYVTSQPWPFPQSLMTAFMAEYDSGDIVIDPKELLEANWYRYDDLPLLPPPGTVARRLIEDTVAMCRAEYE”, “not failed”.

Regarding “MDRIPFGIRQLDSIINGGAPAGSVVLLSGEAGAGSREFMHTSALINGLEQVDTELHDLYYGDRSPDAVAPDEVHYISFTTNESQLVSEMRLAMDDDVVDKGSRAVEFHDLSERYFHISPVPREWYASETASITDLRARHEREDLLGTLGMVLNEVAANNLVVIDSLSDLVSAMGEEIEWSDISSLVQGLQKAAHQWGCLLLLHINPETLSTVRHGQLVDASHGTMEFAWESGGSTRARTLVVQQFRGVLSQIEDEDIVQFETELGDAGFDISDVRKIRLEHHHHHH”, the protein production result is on record as “failed”. For the sequence “MDRLSYAIGDKAVLNNIRVQFQPGSVTALLGPNGAGKSTLLKALCQEIPSAQGSIKLGHCQLVDWPRAELAKSLAVLPQHASLTFPFTVDEVVAMGLYPLTLSQKEGQQLVTKWLAEVGVLHLARRSYPTLSGGEKQRVQLARVLTQLSQSPFPPILLLDEPTSALDLAQQHKVLALAKNLAHKHAYTVIVVLHDLNQAARYSDRVIVLKQGEIVSEGTPNDALSIDIIRQVWDYEPEFIPAPQGDYPLIF”, the protein production result is given as “failed”.

As to “MDRNEVRHAWDSVSETYAERRDPTGSDAALLEDLLERLPEAPTVLDVGCGDGARTLANLPPRSVGLDFSRAGLDLAAETVPDSRLVQGDMGSLPVTTDSVDAITAYHAVFHVQRDQHPEVYREFARVLRPGGTVLMTLPSGQFETVRRGWMGGSMFFSAPGRRATLDQLADAGFTETETVTATDPLGSDSEFVFATLADALEHHHHHH”, the protein production entry is “not failed”.

Regarding “MDRNLVQKGDAPPSKRSDPGTEFCVDIVVKGRKTEVPERFRKHVAEKLKLEKIQKLDGKVISLDVEVSKEPNPRQADRCDRVEITLRSRGPVIRAEAAASDPYAALDLAAEKLGARLRKQHDKRFSRRGARRISAAEVADHVPGAATLNGNGDVVPTEKQDGVPTKKIGSLEVQGDGPLVVREKTHVAAPMSLDQALYEMELVGHDFYLFVDSETKEPSVVYRRHAYDYGVIHLTTDTMVTQAHAPDAGDALGGLEHHHHHH”, the protein production entry was “failed”. Turning to “MDRPETIAVKCEPMTVDSPSRPLKLVVLADLNFNPPETDDLDSSIPIPTPPPITRLSNEESHQEGGILTCKEVEPGEVEAKKISKVGKCRSRSKIESSSDCGVDADGDLANQGVPASREEKISNLKMGLIHVARKMPKNAHAHFILGLMFQRLGQSQKAIPEYEKAEEILLGCEPEIARPELLLLVQIHHGQCLLLDGFGDTDSVKELEGEELEEILSKLKDSIKLDVRQAAVWNTLGLMLLKAGCLMSAISVLSSLLALVPDNYDCLANLGVAYLQSGDMELSAKCFQDLVLKDHNHPAALINYAAELLCKHSSTVAGAGANGGADASEDQKAPMNVAKECLLAALRSDPKSAHAWVNLANSYYMMGDHRSSSKCLEKAAKLDPNCMATRFAVAVQRIKDAERSQDASDQLSWAGNEMASVIREGESVPIDPPIAWAGLAMAHKAQHEIAAAFVADRNELTEMEERAVYSLKQAVTEDPEDAVRWHQLGLHSLCSQQYKLSQKYLKAAVGRSRECSYAWSNLGISLQLSDEHSEAEEVYKRALTVSKEDQAHAILSNLGNLYRQKKQYEVSKAMFSKALELKPGYAPAYNNLGLVFVAERRWEEAKSCFEKSLEADSLLDAAQSNLLKATTMSRLCTCFSSSTVVRDS”, the protein production result is “failed”. For the sequence “MDRPLSFAAVSFLATLVTLLVLMQTALVAGGPLRALVLASVGAIGTYFAIRSGVLKS”, the protein production entry is reported as “failed”.

The values above are taken from a protein production outcome set (Wang et al. 2014).
